These results are taken from the supplement of paper PMC5998384.

Series [1] has as its system HeLa Kyoto. Kind of series: thermal stability score vs G1/S (z-score of summed log2 fold changes over temperatures); higher = more thermally stable than in G1/S.
Series [2] concerns HeLa Kyoto. Kind of series: solubility in G1/S (NP-40 vs SDS abundance) (log2 ratio); higher = more soluble. The settings on record: cell cycle stage: G1/S.
Series [3] has as its system HeLa Kyoto. Kind of series: melting temperature (median over replicates), in situ; higher = more thermally stable.
Series [4] concerns HeLa Kyoto. Description: solubility change mitosis vs G1/S (difference of NP-40 vs SDS log2 ratios) (log2 ratio difference); higher = more soluble in mitosis.
Where [5] appears, read: cell cycle stage: early G1 (4.5 h after nocodazole release).
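For melting temperature (median over replicates), in situ in this document: HeLa Kyoto cells synchronized by double thymidine or nocodazole block, proteins quantified by TMT10plex mass spectrometry, three independent biological replicates.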
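For solubility change mitosis vs G1/S (difference of NP-40 vs SDS log2 ratios) in this document: synchronized HeLa Kyoto cells (double thymidine block for G1/S, nocodazole release for mitosis), protein amounts in NP-40 versus SDS lysates quantified by mass spectrometry, three biological replicates.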
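For solubility in G1/S (NP-40 vs SDS abundance) in this document: HeLa Kyoto cells arrested at G1/S by double thymidine block, proteins quantified by TMT10plex mass spectrometry in mild NP-40 versus SDS extracts, three biological replicates.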
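For thermal stability score vs G1/S (z-score of summed log2 fold changes over temperatures) in this document: synchronized HeLa Kyoto cells, proteins quantified by TMT10plex mass spectrometry, three biological replicates, mitosis taken 0.5 h after nocodazole release, G1/S directly after double thymidine block.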

Chain of LIMD1 (chain, as listed by the source): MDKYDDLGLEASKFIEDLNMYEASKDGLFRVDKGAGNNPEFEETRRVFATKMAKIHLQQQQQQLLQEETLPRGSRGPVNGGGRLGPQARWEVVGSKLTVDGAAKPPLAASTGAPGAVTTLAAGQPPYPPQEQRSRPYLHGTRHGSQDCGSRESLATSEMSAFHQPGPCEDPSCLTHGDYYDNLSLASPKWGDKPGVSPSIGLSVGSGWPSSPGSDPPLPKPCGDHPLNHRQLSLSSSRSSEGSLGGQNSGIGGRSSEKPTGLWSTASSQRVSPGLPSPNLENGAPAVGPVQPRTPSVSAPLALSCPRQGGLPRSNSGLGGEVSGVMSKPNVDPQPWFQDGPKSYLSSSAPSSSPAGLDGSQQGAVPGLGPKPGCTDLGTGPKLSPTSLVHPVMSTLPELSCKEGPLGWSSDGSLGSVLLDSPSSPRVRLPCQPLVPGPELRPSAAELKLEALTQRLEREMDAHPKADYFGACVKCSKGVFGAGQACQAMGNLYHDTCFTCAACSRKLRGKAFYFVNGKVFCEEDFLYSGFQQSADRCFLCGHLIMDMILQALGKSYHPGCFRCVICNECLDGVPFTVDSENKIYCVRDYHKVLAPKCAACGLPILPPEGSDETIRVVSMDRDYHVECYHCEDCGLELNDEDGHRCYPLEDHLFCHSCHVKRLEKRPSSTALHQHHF

Consider “MARAMAAAWPLLLVALLVLSWPPPGTGDVVVQAPTQVPGFLGDSVTLPCYLQVPNMEVTHVSQLTWARHGESGSMAVFHQTQGPSYSESKRLEFVAARLGAELRNASLRMFGLRVEDEGNYTCLFVTFPQGSRSVDIWLRVLAKPQNTAEVQKVQLTGEPVPMARCVSTGGRPPAQITWHSDLGGMPNTSQVPGFLSGTVTVTSLWILVPSSQVDGKNVTCKVEHESFEKPQLLTVNLTVYYPPEVSISGYDNNWYLGQNEATLTCDARSNPEPTGYNWSTTMGPLPPFAVAQGAQLLIRPVDKPINTTLICNVTNALGARQAELTVQVKEGPPSEHSGISRNAIIFLVLGILVFLILLGIGIYFYWSKCSREVLWHCHLCPSSTEHASASANGHVSYSAVSRENSSSQDPQTEGTR [PVR]”, for which the values for the thermal stability score with HeLa Kyoto [1] (setting [5]) and in the series with HeLa Kyoto [1] (cell cycle stage: mitosis) were -1.4 and -2.91, respectively. The “solubility in G1/S (log2)” value in the series with HeLa Kyoto [2] stood at 0.109. Also, the melting temperature with HeLa Kyoto [3] (cell cycle stage: G1/S) and in the series with HeLa Kyoto [3] (cell cycle stage: mitosis) was 55 °C each time. Further, the “solubility change mitosis (log2)” value in the series with HeLa Kyoto [4] was found to be 0.164.

“MATAAYEQLKLHITPEKFYVEACDDGADDVLTIDRVSTEVTLAVKKDVPPSAVTRPIFGILGTIHLVAGNYLIVITKKIKVGEFFSHVVWKATDFDVLSYKKTMLHLTDIQLQDNKTFLAMLNHVLNVDGFYFSTTYDLTHTLQRLSNTSPEFQEMSLLERADQRFVWNGHLLRELSAQPEVHRFALPVLHGFITMHSCSINGKYFDWILISRRSCFRAGVRYYVRGIDSEGHAANFVETEQIVHYNGSKASFVQTRGSIPVFWSQRPNLKYKPLPQISKVANHMDGFQRHFDSQVIIYGKQVIINLINQKGSEKPLEQTFATMVSSLGSGMMRYIAFDFHKECKNMRWDRLSILLDQVAEMQDELSYFLVDSAGQVVANQEGVFRSNCMDCLDRTNVIQSLLARRSLQAQLQRLGVLHVGQKLEEQDEFEKIYKNAWADNANACAKQYAGTGALKTDFTRTGKRTHLGLIMDGWNSMIRYYKNNFSDGFRQDSIDLFLGNYSVDELESHSPLSVPRDWKFLALPIIMVVAFSMCIICLLMAGDTWTETLAYVLFWGVASIGTFFIILYNGKDFVDAPRLVQKEKID [SACM1L]”: the thermal stability score in the series on HeLa Kyoto [1] (setting [5]) was 1.77; in the series on HeLa Kyoto [1] (cell cycle stage: mitosis) it was 2.34. In addition, the “solubility in G1/S (log2)” value in the series on HeLa Kyoto [2] is -0.172. In addition, the melting temperature in the series on HeLa Kyoto [3] (cell cycle stage: G1/S) and with HeLa Kyoto [3] (cell cycle stage: mitosis) was 50.7 °C in each case. The “solubility change mitosis (log2)” value in the series with HeLa Kyoto [4] is -0.111.

In the case of “MRKVVLITGASSGIGLALCKRLLAEDDELHLCLACRNMSKAEAVCAALLASHPTAEVTIVQVDVSNLQSVFRASKELKQRFQRLDCIYLNAGIMPNPQLNIKALFFGLFSRKVIHMFSTAEGLLTQGDKITADGLQEVFETNVFGHFILIRELEPLLCHSDNPSQLIWTSSRSARKSNFSLEDFQHSKGKEPYSSSKYATDLLSVALNRNFNQQGLYSNVACPGTALTNLTYGILPPFIWTLLMPAILLLRFFANAFTLTPYNGTEALVWLFHQKPESLNPLIKYLSATTGFGRNYIMTQKMDLDEDTAEKFYQKLLELEKHIRVTIQKTDNQARLSGSCL [HSD17B7]”, the thermal stability score in the series with HeLa Kyoto [1] (setting [5]) was -1.29; in the series with HeLa Kyoto [1] (cell cycle stage: mitosis), -0.53. The “solubility in G1/S (log2)” value with HeLa Kyoto [2] was -0.113. Also, the melting temperature was 52.8 °C with HeLa Kyoto [3] (cell cycle stage: G1/S) and 51 °C in the series with HeLa Kyoto [3] (cell cycle stage: mitosis). Also, the “solubility change mitosis (log2)” value with HeLa Kyoto [4] is -0.161.

For “MGKRQHQKDKMYITCAEYTHFYGGKKPDLPQTNFRRLPFDHCSLSLQPFVYPVCTPDGIVFDLLNIVPWLKKYGTNPSNGEKLDGRSLIKLNFSKNSEGKYHCPVLFTVFTNNTHIVAVRTTGNVYAYEAVEQLNIKAKNFRDLLTDEPFSRQDIITLQDPTNLDKFNVSNFYHVKNNMKIIDPDEEKAKQDPSYYLKNTNAETRETLQELYKEFKGDEILAATMKAPEKKKVDKLNAAHYSTGKVSASFTSTAMVPETTHEAAAIDEDVLRYQFVKKKGYVRLHTNKGDLNLELHCDLTPKTCENFIRLCKKHYYDGTIFHRSIRNFVIQGGDPTGTGTGGESYWGKPFKDEFRPNLSHTGRGILSMANSGPNSNRSQFFITFRSCAYLDKKHTIFGRVVGGFDVLTAMENVESDPKTDRPKEEIRIDATTVFVDPYEEADAQIAQERKTQLKVAPETKVKSSQPQAGSQGPQTFRQGVGKYINPAATKRAAEEEPSTSATVPMSKKKPSRGFGDFSSW [PPIL2]”, the thermal stability score was found to be 0.984 in the series with HeLa Kyoto [1] (setting [5]) and 1.06 in the series on HeLa Kyoto [1] (cell cycle stage: mitosis). In the series with HeLa Kyoto [2], the “solubility in G1/S (log2)” value was found to be 0.00272. For the same substance, the figures for the melting temperature in the series with HeLa Kyoto [3] (cell cycle stage: G1/S) and in the series on HeLa Kyoto [3] (cell cycle stage: mitosis) were 47.5 °C and 48.4 °C, respectively. The “solubility change mitosis (log2)” value with HeLa Kyoto [4] is -0.019.

Regarding LIMD1, the thermal stability score is 0.183 in the series with HeLa Kyoto [1] (setting [5]) and -0.541 with HeLa Kyoto [1] (cell cycle stage: mitosis). Also, the “solubility in G1/S (log2)” value with HeLa Kyoto [2] came to 0.148. Moreover, the figures for the melting temperature in the series on HeLa Kyoto [3] (cell cycle stage: G1/S) and in the series on HeLa Kyoto [3] (cell cycle stage: mitosis) were 51.8 °C and 51.9 °C, respectively. In addition, the “solubility change mitosis (log2)” value in the series on HeLa Kyoto [4] was -0.126.

“MSSCSRVALVTGANRGIGLAIARELCRQFSGDVVLTARDVARGQAAVQQLQAEGLSPRFHQLDIDDLQSIRALRDFLRKEYGGLNVLVNNAAVAFKSDDPMPFDIKAEMTLKTNFFATRNMCNELLPIMKPHGRVVNISSLQCLRAFENCSEDLQERFHSETLTEGDLVDLMKKFVEDTKNEVHEREGWPNSPYGVSKLGVTVLSRILARRLDEKRKADRILVNACCPGPVKTDMDGKDSIRTVEEGAETPVYLALLPPDATEPQGQLVHDKVVQNW [CBR3]”: the thermal stability score in the series on HeLa Kyoto [1] (setting [5]) is -0.991; in the series with HeLa Kyoto [1] (cell cycle stage: mitosis), 0.085. Further, the “solubility in G1/S (log2)” value in the series with HeLa Kyoto [2] amounted to 0.562. Also, the melting temperature with HeLa Kyoto [3] (cell cycle stage: G1/S) was 51.4 °C; in the series on HeLa Kyoto [3] (cell cycle stage: mitosis) it was 52.4 °C. Also, in the series on HeLa Kyoto [4], the “solubility change mitosis (log2)” value was -0.0459.

Regarding “MSCPVPACCALLLVLGLCRARPRNALLLLADDGGFESGAYNNSAIATPHLDALARRSLLFRNAFTSVSSCSPSRASLLTGLPQHQNGMYGLHQDVHHFNSFDKVRSLPLLLSQAGVRTGIIGKKHVGPETVYPFDFAYTEENGSVLQVGRNITRIKLLVRKFLQTQDDRPFFLYVAFHDPHRCGHSQPQYGTFCEKFGNGESGMGRIPDWTPQAYDPLDVLVPYFVPNTPAARADLAAQYTTVGRMDQGVGLVLQELRDAGVLNDTLVIFTSDNGIPFPSGRTNLYWPGTAEPLLVSSPEHPKRWGQVSEAYVSLLDLTPTILDWFSIPYPSYAIFGSKTIHLTGRSLLPALEAEPLWATVFGSQSHHEVTMSYPMRSVQHRHFRLVHNLNFKMPFPIDQDFYVSPTFQDLLNRTTAGQPTGWYKDLRHYYYRARWELYDRSRDPHETQNLATDPRFAQLLEMLRDQLAKWQWETHDPWVCAPDGVLEEKLSPQCQPLHNEL [SGSH]”, the thermal stability score in the series on HeLa Kyoto [1] (setting [5]) is -1.28; in the series with HeLa Kyoto [1] (cell cycle stage: mitosis), -1.81. The “solubility in G1/S (log2)” value with HeLa Kyoto [2] worked out at 0.401. The melting temperature with HeLa Kyoto [3] (cell cycle stage: G1/S) was found to be 53.5 °C; with HeLa Kyoto [3] (cell cycle stage: mitosis), 58 °C. Moreover, the “solubility change mitosis (log2)” value with HeLa Kyoto [4] is -0.261.

Consider “MERKISRIHLVSEPSITHFLQVSWEKTLESGFVITLTDGHSAWTGTVSESEISQEADDMAMEKGKYVGELRKALLSGAGPADVYTFNFSKESCYFFFEKNLKDVSFRLGSFNLEKVENPAEVIRELICYCLDTIAENQAKNEHLQKENERLLRDWNDVQGRFEKCVSAKEALETDLYKRFILVLNEKKTKIRSLHNKLLNAAQEREKDIKQEGETAICSEMTADRDPVYDESTDEESENQTDLSGLASAAVSKDDSIISSLDVTDIAPSRKRRQRMQRNLGTEPKMAPQENQLQEKENSRPDSSLPETSKKEHISAENMSLETLRNSSPEDLFDEI [XRCC4]”, for which the values for the thermal stability score in the series on HeLa Kyoto [1] (setting [5]) and in the series on HeLa Kyoto [1] (cell cycle stage: mitosis) were -0.551 and -0.497, respectively. For the same substance, the “solubility in G1/S (log2)” value in the series with HeLa Kyoto [2] worked out at 0.0124. Besides, the results for the melting temperature in the series with HeLa Kyoto [3] (cell cycle stage: G1/S) and in the series with HeLa Kyoto [3] (cell cycle stage: mitosis) were 55.2 °C and 54.7 °C, respectively. The “solubility change mitosis (log2)” value in the series with HeLa Kyoto [4] was -0.0112.
